Measurements from US10633455B2, “Method for treating and diagnosing disease using inhibitors of goodpasture antigen binding protein” (Fibrostatin S.L., priority 2011, dated 2020).

T1: GPBP (Homo sapiens, UniProt Q9Y5P4)
T1 sequence (Q9Y5P4 1-624): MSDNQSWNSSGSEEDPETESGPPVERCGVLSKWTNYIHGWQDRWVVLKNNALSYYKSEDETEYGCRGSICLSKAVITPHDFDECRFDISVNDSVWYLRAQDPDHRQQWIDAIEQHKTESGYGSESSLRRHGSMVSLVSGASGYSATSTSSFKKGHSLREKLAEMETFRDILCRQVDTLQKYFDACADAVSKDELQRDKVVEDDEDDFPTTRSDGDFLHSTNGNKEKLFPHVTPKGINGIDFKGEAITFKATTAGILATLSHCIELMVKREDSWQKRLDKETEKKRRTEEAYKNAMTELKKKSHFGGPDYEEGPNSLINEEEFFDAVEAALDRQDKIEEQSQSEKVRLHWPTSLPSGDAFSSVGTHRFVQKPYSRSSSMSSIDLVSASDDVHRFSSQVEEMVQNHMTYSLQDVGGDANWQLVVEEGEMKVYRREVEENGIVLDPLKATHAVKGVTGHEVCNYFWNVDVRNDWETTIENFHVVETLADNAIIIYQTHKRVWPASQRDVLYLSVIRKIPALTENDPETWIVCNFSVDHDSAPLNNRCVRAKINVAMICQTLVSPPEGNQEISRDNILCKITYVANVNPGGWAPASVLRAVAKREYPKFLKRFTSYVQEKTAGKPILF

B1: rcGPBP-1: Recombinant cGPBP-1 purified from culture media of a HEK 293 cell clone that constitutively secretes FLAG-GPBP-1 (protein)
chain: MSDNQSWNSSGSEEDPETESGPPVERCGVLSKWTNYIHGWQDRWVVLKNNALSYYKSEDETEYGCRGSICLSKAVITPHDFDECRFDISVNDSVWYLRAQDPDHRQQWIDAIEQHKTESGYGSESSLRRHGSMVSLVSGASGYSATSTSSFKKGHSLREKLAEMETFRDILCRQVDTLQKYFDACADAVSKDELQRDKVVEDDEDDFPTTRSDGDFLHSTNGNKEKLFPHVTPKGINGIDFKGEAITFKATTAGILATLSHCIELMVKREDSWQKRLDKETEKKRRTEEAYKNAMTELKKKSHFGGPDYEEGPNSLINEEEFFDAVEAALDRQDKIEEQSQSEKVRLHWPTSLPSGDAFSSVGTHRFVQKPYSRSSSMSSIDLVSASDDVHRFSSQVEEMVQNHMTYSLQDVGGDANWQLVVEEGEMKVYRREVEENGIVLDPLKATHAVKGVTGHEVCNYFWNVDVRNDWETTIENFHVVETLADNAIIIYQTHKRVWPASQRDVLYLSVIRKIPALTENDPETWIVCNFSVDHDSAPLNNRCVRAKINVAMICQTLVSPPEGNQEISRDNILCKITYVANVNPGGWAPASVLRAVAKREYPKFLKRFTSYVQEKTAGKPILF

Tests used:
[1] = test system: doxorubicin-induced PF; test: Doxorubicin-induced pulmonary fibrosis in mice; format: in vivo, C57BL/6 male mice
Description: For induction of PF with doxorubicin (Example 3), eight to ten weeks-old C57BL/6 male mice were purchased from Harlan Ibérica (Barcelona, Spain). For intratracheal (i.t.) instillation of doxorubicin (Sigma), mice were anesthetized by intraperitoneal (i.p.) injection of ketamine (50 μg/g of body weight), atropine sulphate (0.2 μg/g) and diazepam (4 μg/g). The trachea was localized by cutaneous incision in the anterior face of the neck and immobilized with forceps. Then 75 μl of doxorubicin chlorhydrate (1 mg/ml) were injected i.t. with a 30 G needle. Skin was then sutured with 3/0 silk. Mice were fed ad libitum with a normal chow diet and bled from the retro-orbital plexus at different time points after doxorubicin i.t. instillation. […] Mice instilled i.t. with doxorubicin were daily injected i.p. with either with 0.027, 0.08, 0.25 or 1.225 mg/kg of Pinacidil or with 0.11, 0.34 or 0.95 mg/kg of Myricetin. Mice were sacrificed twelve days after doxorubicin administration for gene expression analysis and anatomopathological studies of the lungs.
In PF assays, mouse lungs were intrabronchially perfused with 4% phosphate buffered formalin, then incubated in this fixative during 24 hours and finally embedded in paraffin. Tissue sections of 5 μm were stained with HE or with Masson's trichrome following conventional methods. For immunohistochemistry, paraffin-embedded lungs were stained with anti-GPBP-pep1 antibodies (3), which was detected with anti-chicken-HPR and DAB substrate (Dako Diagnósticos, S.A., Barcelona Spain). Specimens were counterstained with hematoxylin.
In assays of experimental pulmonary fibrosis, the expression of GPBP and of collagens type I and type IV mRNAs in the lung was analyzed by real-time quantitative PCR (RT-qPCR). One μg of the isolated RNA was used for cDNA synthesis with a RT-PCR kit (Amersham Pharmacia Biotech, Piscataway, N.J.), according to the manufacturer instructions. RT-qPCR was performed on a MX-3000P Stratagene instrument (Agilent Technologies, Inc., Santa Clara, Calif.) using specific primers SYBR Green PCR Master Mix (Applied Biosystems, Life Technologies Corporation). Primers used were: for α1(I) collagen gene, 5′ primer 5′-[…]-3′ (SEQ ID NO: 12) and 3′ primer 5′-[…]-3′ (SEQ ID NO: 13); for GPBP gene, 5′ primer 5′-[…]-3′ (SEQ ID NO: 14) and 3′ primer 5′-[…]-3′(SEQ ID NO: 15); for 18S gene, 5′ primer 5′-[…]-3′ (SEQ ID NO: 16) and 3′ primer 5′-[…]-3′ (SEQ ID NO: 17). Results (in triplicate) were normalized to the ribosomal 18S subunit expression and measured in parallel in each sample. Data were expressed as mean fold change relative to control samples.

[2] = target: T1, GPBP; test: Inhibition of autophosphorylating activity of GPBP in vitro; format: biochemical; conditions: Pretswick Chemical Library selection (not shown)
[3] = test system: A549 cells; test: mRNA expression profile / KEGG pathway analysis of A549 cells cultured with rcGPBP-1; format: cell-based, human; conditions: 200 ng/mL
Description: Human A549 cells were cultured with or without 200 ng/mL of rcGPBP-1 for 3 hours. Then cells were lysed and total RNA was extracted with RNeasy™ Protect mini kit (Qiagen, Valencia, Calif.) according to manufacturer's recommendations. RNA was quantified by spectrometry with a NanoDrop™ ND1000 (NanoDrop Technologies, Wilminton, Del.) and quality confirmed by RNA 6000 Nano Bioanalyzer (Agilent Technologies, Palo Alto, Calif.) assay. Briefly, 150 ng of total RNA were used to produce Cyanine 3-CTP-labeled cRNA using the Low Input Quick™ Amp Labelling Kit One-Color (Agilent) according to the manufacturer's instructions. Following ‘One-Color Microarray-Based Gene Expression Analysis’ protocol Version 6.0 (Agilent), 1600 ng of labelled cRNA were hybridized with the Whole Human Genome Oligo Microarray Kit (Agilent) containing 41000+ unique human genes and transcripts. Arrays were scanned in an Agilent Microarray Scanner according to the manufacturer's instructions and data extracted using Agilent Feature Extraction Software 10.7.1 following the Agilent protocol GE1_107_Sep09, grid template 014850_D_F_20100430 and the QC Metric Set GE1_QCMT_Sep09. Analysis was performed in the Genomics Core Service of the Centro de Investigación Príncipe Felipe (Valencia, Spain) using an Agilent Microarray Scanner (Agilent Technologies, Palo Alto, Calif.).
Raw data files were background corrected using supplier's methodology and intensity signal standardized across arrays via quantile normalization algorithm. Differential gene expression assessment of all comparisons was carried out using limma moderated t-statistics. Conventional adjustment for multiple testing proposed by Benjamini Hochberg (5) was used to derive adjusted P-values. Also, for each of the comparisons performed in the study, gene set analysis was carried out using logistic regression models, and correcting for multiple testing as before (5). All analyses where carried out using Babelomics™ (6) web suite at the Bioinformatics Department of Centro de Investigación Príncipe Felipe. Array data have been deposited in GEO (accession number GSE32181).

[4] = A549 + rcGPBP-1 vs A549, 3 hours, P. adjusted 0.1576

Row | Molecule | expression of pulmonary α1(I) collagen mRNA ([1]; daily dose of 0.08 mg/kg i.p., day 12, RT-qPCR (FIG. 11A)) | severity of doxorubicin-induced pulmonary fibrosis ([1]; daily dose of 0.08 mg/kg i.p., days 0-12, histology (FIG. 10)) | therapeutic effect (α1(I) collagen mRNA) ([1]; higher doses, 0.25 or 1.225 mg/kg/day (FIG. 11A)) | autophosphorylating activity of GPBP [2] | doxorubicin-induced fibrosis (α1(I) collagen mRNA) ([1]; all doses tested (0.11, 0.34 or 0.95 mg/kg daily i.p.), day 12 (FIG. 11B)) | Log Odds Ratio, KEGG pathway hsa05322 SLE ([3]; A549 + rcGPBP-1 vs A549, 3 hours, P. adjusted 0.0003) | Log Odds Ratio, KEGG pathway hsa00380 Tryptophan metabolism [3, 4] | Log Odds Ratio, KEGG pathway hsa04120 Ubiquitin mediated proteolysis [3, 4] | Log Odds Ratio, KEGG pathway hsa04210 Apoptosis [3, 4] | Log Odds Ratio, KEGG pathway hsa05200 Pathways in cancer [3, 4] | Log Odds Ratio, KEGG pathway hsa05211 Renal cell carcinoma [3, 4] | Log Odds Ratio, KEGG pathway hsa05222 Small cell lung cancer [3, 4] | Log Odds Ratio, KEGG pathway hsa04510 Focal adhesion ([3]; A549 + rcGPBP-1 vs A549, 3 hours, P. adjusted 0.1579) | Log Odds Ratio, KEGG pathway hsa04914 Progesterone-mediated oocyte maturation ([3]; A549 + rcGPBP-1 vs A549, 3 hours, P. adjusted 0.1771) | Log Odds Ratio, KEGG pathway hsa05218 Melanoma ([3]; A549 + rcGPBP-1 vs A549, 3 hours, P. adjusted 0.3348) | changes in the expression of individual genes ([3]; A549 cells, microarray)
1 | CC(N/C(=N\C#N)Nc1ccncc1)C(C)(C)C (centres unmarked) [pinacidil] | significant reduced expression | sharply reduced | lost | inhibit the autophosphorylating activity of GPBP in vitro |  |  |  |  |  |  |  |  |  |  |  | 
2 | O=c1c(O)c(-c2cc(O)c(O)c(O)c2)oc2cc(O)cc(O)c12 [myricetin] |  |  |  | inhibit the autophosphorylating activity of GPBP in vitro | efficient reduction |  |  |  |  |  |  |  |  |  |  | 
3 | B1 |  |  |  |  |  | 0.1444 | −0.1522 | −0.1130 | −0.1307 | −0.0843 | −0.1355 | −0.1253 | −0.0969 | −0.1223 | −0.1196 | No statistically significant changes
